Target: programmed cell death 1 (PD1), endogenous in mouse CD8+ T cells (mouse (endogenous in OT-1 and C57BL/6 CD8+ T cells)) (UniProt Q02242)
Experiment: co-IP; Lag3-/- or Pdcd1-/- mouse CD8+ T cells retrovirally transduced with LAG3 or PD1 constructs (pMIG-II), sorted, rested in IL2, restimulated with IE9mp1 for 5 min or treated with pervanadate for 5 min; antibody-conjugated Dynal beads; Western blot, densitometry normalised to input

Sequence of programmed cell death 1 (PD1), endogenous in mouse CD8+ T cells (mouse (endogenous in OT-1 and C57BL/6 CD8+ T cells)) (Q02242 25-288): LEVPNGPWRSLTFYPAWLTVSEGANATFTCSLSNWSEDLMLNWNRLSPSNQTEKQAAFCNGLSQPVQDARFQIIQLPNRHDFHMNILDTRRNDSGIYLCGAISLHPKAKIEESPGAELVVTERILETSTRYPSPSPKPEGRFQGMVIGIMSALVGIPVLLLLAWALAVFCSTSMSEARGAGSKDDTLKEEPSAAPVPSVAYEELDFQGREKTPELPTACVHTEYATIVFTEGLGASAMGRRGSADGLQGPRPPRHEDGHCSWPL
Sequence of Src-homology-2 domain-containing phosphatase SHP1, endogenous in mouse CD8+ T cells, P29351 1-595 (enzyme; other documents disagree on this pair) (P29351 whole entry): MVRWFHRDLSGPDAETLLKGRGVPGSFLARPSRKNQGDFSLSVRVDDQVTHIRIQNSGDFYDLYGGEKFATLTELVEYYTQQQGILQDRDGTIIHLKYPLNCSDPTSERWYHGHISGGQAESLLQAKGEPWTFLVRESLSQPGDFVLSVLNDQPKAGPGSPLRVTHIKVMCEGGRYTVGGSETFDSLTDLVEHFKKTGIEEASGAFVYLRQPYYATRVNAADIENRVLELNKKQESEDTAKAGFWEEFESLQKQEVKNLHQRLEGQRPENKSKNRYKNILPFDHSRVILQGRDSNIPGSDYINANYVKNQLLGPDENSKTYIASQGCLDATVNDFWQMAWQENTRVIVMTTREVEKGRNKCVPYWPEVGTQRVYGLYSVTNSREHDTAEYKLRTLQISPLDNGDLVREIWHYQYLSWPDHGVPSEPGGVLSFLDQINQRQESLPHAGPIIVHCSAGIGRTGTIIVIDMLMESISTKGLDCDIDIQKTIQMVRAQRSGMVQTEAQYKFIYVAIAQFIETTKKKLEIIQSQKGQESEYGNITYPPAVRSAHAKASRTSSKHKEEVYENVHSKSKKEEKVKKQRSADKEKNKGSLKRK

Substance	amount pulled down by anti-PD1 antibody in cells with pΔCY, against cells with pLAG3	amount pulled down by anti-PD1 antibody, against pLAG3
Src-homology-2 domain-containing phosphatase SHP1, endogenous in mouse CD8+ T cells, P29351 1-595 (enzyme; other documents disagree on this pair)	20 % less	
LAG3 lacking the cytoplasmic domain, expressed from pMIG-LAG3ΔCY in Lag3-/- CD8+ T cells (domain or fragment)		30 % lower

From paper PMC4694995
